Sequences and labels used below:
B1: B42-Tvl-1 fusion (Tvl-1 a.a. 81-269 fused to the activation domain B42) (other, not shown: large carriers)
chain: VSALPATLDSLSIHQLAAQGELSQLKDHLRKGACPACTCLSGNNLINKPDERGFTPLIWASAFGEIETVRFLLDWGADPHILAKERESALSLASMGGYTDIVRLLLDRDVDINIYDWNGGTPLLYAVRGNHVKCVEALLARGADLTTEADSGYTPMDLAVALGYRKVQQVMESHILRLFQSTLGPVDPE
notes: Yeast two-hybrid prey; also called acid blob-Tvl-1

For one assay, the target named is T1, LexA-ftz (UniProt P02835 1-410, limits assumed).
T1 construct: not shown: LexA, fusion partner
T1 sequence (looked up): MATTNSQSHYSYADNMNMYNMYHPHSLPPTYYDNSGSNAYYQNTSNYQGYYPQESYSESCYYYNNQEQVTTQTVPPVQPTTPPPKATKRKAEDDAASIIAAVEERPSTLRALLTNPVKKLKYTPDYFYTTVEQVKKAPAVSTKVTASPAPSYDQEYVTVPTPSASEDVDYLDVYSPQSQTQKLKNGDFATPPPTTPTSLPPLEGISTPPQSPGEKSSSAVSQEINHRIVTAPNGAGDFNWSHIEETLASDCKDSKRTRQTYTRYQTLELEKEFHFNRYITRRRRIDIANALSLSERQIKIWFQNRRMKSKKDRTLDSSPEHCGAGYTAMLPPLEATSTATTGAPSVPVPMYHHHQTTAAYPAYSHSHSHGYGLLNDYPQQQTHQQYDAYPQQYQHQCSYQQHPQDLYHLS
The experiment in a line: yeast interaction mating, B42 Tvl-1 against LexA fusion (data not shown).

The next assay deals with T2, LexA-SSN6 (UniProt P14922 1-966, limits assumed).
T2 construct: not shown: LexA, fusion partner
T2 sequence (P14922 whole entry, the tested form may be a part): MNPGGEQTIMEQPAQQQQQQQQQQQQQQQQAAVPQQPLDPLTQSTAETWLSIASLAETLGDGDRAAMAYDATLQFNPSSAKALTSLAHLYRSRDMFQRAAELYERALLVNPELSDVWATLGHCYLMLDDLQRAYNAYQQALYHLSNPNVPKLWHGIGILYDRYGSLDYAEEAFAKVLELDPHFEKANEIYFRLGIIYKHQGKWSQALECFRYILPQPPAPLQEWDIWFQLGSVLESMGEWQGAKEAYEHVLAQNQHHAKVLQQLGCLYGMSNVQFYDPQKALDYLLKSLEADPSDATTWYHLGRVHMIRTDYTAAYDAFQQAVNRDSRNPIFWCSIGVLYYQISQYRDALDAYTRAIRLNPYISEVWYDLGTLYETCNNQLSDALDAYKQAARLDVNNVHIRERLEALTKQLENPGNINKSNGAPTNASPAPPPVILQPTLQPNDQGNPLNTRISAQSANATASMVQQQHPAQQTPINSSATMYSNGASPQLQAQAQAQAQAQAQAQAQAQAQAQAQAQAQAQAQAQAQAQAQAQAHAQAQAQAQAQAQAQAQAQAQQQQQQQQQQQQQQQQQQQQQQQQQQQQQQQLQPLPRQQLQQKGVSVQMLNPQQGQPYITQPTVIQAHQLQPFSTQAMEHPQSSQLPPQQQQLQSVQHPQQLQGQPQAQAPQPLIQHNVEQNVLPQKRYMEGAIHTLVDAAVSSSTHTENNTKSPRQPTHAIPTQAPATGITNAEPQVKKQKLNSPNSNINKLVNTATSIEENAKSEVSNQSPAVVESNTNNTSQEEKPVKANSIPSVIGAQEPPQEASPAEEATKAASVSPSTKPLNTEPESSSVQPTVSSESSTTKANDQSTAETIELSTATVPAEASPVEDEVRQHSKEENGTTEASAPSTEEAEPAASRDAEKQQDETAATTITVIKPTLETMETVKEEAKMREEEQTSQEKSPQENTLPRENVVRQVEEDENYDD
The description is as above.

The target in the next assay is T3, LexA-daughterless (UniProt P11420 1-710, limits assumed).
T3 construct: not shown: LexA, fusion partner
T3 sequence (looked up): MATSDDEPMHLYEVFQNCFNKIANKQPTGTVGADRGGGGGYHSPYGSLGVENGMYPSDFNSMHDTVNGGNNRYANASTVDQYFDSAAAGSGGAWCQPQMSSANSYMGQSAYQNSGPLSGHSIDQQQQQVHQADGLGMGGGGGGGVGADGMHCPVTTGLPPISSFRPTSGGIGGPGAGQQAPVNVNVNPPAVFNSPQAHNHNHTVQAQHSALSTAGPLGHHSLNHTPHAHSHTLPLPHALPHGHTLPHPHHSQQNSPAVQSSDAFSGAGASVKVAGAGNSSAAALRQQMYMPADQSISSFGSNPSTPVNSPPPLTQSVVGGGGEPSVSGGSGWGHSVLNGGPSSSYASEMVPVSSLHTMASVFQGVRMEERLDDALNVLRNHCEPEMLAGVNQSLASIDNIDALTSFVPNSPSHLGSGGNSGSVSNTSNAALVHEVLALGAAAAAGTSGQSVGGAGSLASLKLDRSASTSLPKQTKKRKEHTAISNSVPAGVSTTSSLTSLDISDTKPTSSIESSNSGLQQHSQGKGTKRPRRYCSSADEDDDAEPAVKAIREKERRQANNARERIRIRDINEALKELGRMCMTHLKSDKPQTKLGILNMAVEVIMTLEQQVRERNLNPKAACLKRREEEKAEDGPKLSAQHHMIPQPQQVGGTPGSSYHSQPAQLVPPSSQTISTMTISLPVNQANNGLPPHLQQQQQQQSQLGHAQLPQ
Described as above.

The next assay has as its target T4, LexA-DMcdc2 (UniProt P23572 1-297).
T4 construct: not shown: LexA, fusion partner
The assay is described as above.

The target of the next assay is T5, LexA-CLN3 (UniProt P13365 1-580, limits assumed).
T5 construct: not shown: LexA, fusion partner
T5 sequence (looked up): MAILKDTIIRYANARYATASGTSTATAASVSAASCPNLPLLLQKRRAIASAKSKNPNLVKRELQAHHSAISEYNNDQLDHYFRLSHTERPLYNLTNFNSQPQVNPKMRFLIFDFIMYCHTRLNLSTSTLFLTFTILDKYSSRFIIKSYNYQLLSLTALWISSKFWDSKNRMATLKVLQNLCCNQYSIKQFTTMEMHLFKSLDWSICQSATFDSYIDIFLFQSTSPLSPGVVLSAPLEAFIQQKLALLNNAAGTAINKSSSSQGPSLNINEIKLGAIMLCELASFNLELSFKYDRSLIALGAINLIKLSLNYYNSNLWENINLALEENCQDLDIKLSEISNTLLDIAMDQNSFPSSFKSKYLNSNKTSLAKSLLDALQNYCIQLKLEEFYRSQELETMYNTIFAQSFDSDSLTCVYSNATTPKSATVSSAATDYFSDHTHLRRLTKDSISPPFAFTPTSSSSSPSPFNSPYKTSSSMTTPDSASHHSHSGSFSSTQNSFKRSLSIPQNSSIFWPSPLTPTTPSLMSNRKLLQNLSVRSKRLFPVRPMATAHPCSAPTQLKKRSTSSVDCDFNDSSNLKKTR
The assay is described as above.

The target in the next assay is T6, LexA-hairy (UniProt P14003 1-337, limits assumed).
T6 construct: not shown: LexA, fusion partner
T6 sequence (looked up): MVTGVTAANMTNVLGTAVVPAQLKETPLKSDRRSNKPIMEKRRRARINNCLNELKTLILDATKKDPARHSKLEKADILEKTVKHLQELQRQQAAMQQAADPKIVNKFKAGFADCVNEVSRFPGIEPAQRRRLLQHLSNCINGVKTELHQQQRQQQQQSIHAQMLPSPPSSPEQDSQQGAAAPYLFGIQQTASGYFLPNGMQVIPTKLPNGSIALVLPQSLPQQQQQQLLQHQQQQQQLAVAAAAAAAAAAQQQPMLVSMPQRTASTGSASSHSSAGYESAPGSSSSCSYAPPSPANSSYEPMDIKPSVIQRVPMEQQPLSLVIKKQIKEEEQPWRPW
Described as above.

A further assay has as its target T7, LexA-Raf-1 (human, UniProt P0A7C2 1-202; P04049 1-648, limits assumed).
T7 construct: Yeast two-hybrid bait; also called LexA fusion of Raf-1 (#1)
The experiment in a line: yeast two-hybrid (data not shown).

Assay [1] addresses B1. The experiment in a line: yeast interaction mating, B42 Tvl-1 against LexA fusion (data not shown).

The source of these data is US6617427 (THOMAS JEFFERSON UNIVERSITY, dated 2003).

T4 sequence (P23572 whole entry, the tested form may be a part): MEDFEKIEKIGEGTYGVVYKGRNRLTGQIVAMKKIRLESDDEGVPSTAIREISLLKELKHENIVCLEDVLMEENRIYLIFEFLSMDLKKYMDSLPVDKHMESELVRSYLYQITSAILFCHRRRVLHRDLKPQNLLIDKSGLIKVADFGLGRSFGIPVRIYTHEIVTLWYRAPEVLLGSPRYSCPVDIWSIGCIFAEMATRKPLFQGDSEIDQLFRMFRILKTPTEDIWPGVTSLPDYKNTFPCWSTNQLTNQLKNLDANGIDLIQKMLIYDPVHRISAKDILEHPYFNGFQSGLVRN

For the molecule B1, the binding result with LexA-ftz, with LexA-SSN6, with LexA-daughterless, in the assay with LexA-DMcdc2, in the assay with LexA-CLN3 and with LexA-hairy was “no binding” in each case.

B2: Tvl-1 N-terminal portion (a.a. 1-96) (other)
chain: MEPTQVAENLVPNQQPPVPDLEDPEDTRDESPENSDTVVLSLFPCTPDAVNPEADASASSLQGSFLKHSTTLTNRQRGNEVSALPATLDSLSIHQL
Turning to B2, the binding result with LexA-Raf-1 is on record as “no binding”.

B3: LexA-bicoid (other, UniProt P09081 2-160, looked up)
chain: AQPPPDQNFYHHPLPHTHTHPHPHSHPHPHSHPHPHHQHPQLQLPPQFRNPFDLLFDERTGAINYNYIRPYLPNQMPKPDVFPSEELPDSLVMRRPRRTRTTFTSSQIAELEQHFLQGRYLTAPRLADLSAKLALGTAQVKIWFKNRRRRHKIQSDQHK
notes: not shown: LexA, fusion partner
As to B3, the binding result in assay [1] is on record as “no binding”.
